Source: IntAct's records for PubMed 23273425

B1: Splicing factor 1 (Homo sapiens), Q15637 (parent)
chain: MATGANATPLDFPSKKRKRSRWNQDTMEQKTVIPGMPTVIPPGLTREQERAYIVQLQIEDLTRKLRTGDLGIPPNPEDRSPSPEPIYNSEGKRLNTREFRTRKKLEEERHNLITEMVALNPDFKPPADYKPPATRVSDKVMIPQDEYPEINFVGLLIGPRGNTLKNIEKECNAKIMIRGKGSVKEGKVGRKDGQMLPGEDEPLHALVTANTMENVKKAVEQIRNILKQGIETPEDQNDLRKMQLRELARLNGTLREDDNRILRPWQSSETRSITNTTVCTKCGGAGHIASDCKFQRPGDPQSAQDKARMDKEYLSLMAELGEAPVPASVGSTSGPATTPLASAPRPAAPANNPPPPSLMSTTQSRPPWMNSGPSESRPYHGMHGGGPGGPGGGPHSFPHPLPSLTGGHGGHPMQHNPNGPPPPWMQPPPPPMNQGPHPPGHHGPPPMDQYLGSTPVGSGVYRLHQGKGMMPPPPMGMMPPPPPPPSGQPPPPPSGPLPPWQQQQQQPPPPPPPSSSMASSTPLPWQQNTTTTTTSAGTGSIPPWQQQQAAAAASPGAPQMQGNPTMVPLPPGVQPPLPPGAPPPPPPPPPGSAGMMYAPPPPPPPPMDPSNFVTMMGMGVAGMPPFGMPPAPPPPPPQN

Variants of: B1
Conditions: with U2AF2, P26368
U2AF2, P26368, sequence (P26368 whole entry): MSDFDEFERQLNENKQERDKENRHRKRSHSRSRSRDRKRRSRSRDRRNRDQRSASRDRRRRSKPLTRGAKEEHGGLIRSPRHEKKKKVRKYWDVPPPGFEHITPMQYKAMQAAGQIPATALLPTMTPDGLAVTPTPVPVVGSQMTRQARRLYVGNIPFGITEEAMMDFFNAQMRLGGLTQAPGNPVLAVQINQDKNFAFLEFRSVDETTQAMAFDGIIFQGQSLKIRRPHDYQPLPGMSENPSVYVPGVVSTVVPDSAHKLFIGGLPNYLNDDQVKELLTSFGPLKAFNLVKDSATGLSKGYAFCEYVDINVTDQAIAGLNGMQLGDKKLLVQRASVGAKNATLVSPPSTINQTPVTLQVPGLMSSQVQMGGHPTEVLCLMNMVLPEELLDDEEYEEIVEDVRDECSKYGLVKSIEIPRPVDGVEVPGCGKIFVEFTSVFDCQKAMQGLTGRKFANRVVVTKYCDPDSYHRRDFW

Variant	effect of a mutation on the interaction
W22A	disrupting interaction strength
I40R;I53R	decreasing interaction strength
R46D	decreasing interaction strength
S80A;S82A	decreasing interaction strength
R93E;R97E;R100E	decreasing interaction strength
